# According to PMC9599711:
# Target: cardiac troponin T (cTn-T) (UniProt P45379)
# Assay: electrochemical aptasensor
# Settings: thiol (end not stated); Protein in 10 mM PBS pH 7.4, 30 min on BSA-blocked electrode, PBS wash; read in 0.10 M KCl with 5.0 mM K3/K4[Fe(CN)6]; temperature not stated
sequence,measurement,value
CGTGCAGTACGCCAACCTTTCTCATGCGCTGCCCCTCTTA [cTn-I aptamer (Jo et al.)],binding signal (% normalized response),< 5
